Data: the supplement of paper PMC11246515
± gives the standard deviation of the averaged measurements.

Assay: total protein half-life in vivo (active degradation + dilution); higher = more stable protein
[1] = E. coli NCM3722 delta-clpP delta-lon delta-hslV, growth: N-lim chemostat, doubling time 6 h
[2] = E. coli NCM3722 delta-clpP, growth: N-lim chemostat, doubling time 6 h
[3] = E. coli NCM3722 delta-hslV, growth: N-lim chemostat, doubling time 6 h
[4] = E. coli NCM3722 delta-lon, growth: N-lim chemostat, doubling time 6 h
[5] = E. coli NCM3722 delta-smpB, growth: N-lim chemostat, doubling time 6 h
[6] = wild type E. coli NCM3722, growth: C-lim chemostat, doubling time 3 h
[7] = wild type E. coli NCM3722, growth: C-lim chemostat, doubling time 6 h
[8] = wild type E. coli NCM3722, growth: C-lim chemostat, doubling time 12 h
[9] = wild type E. coli NCM3722, growth: N-lim chemostat, doubling time 6 h
[10] = wild type E. coli NCM3722, growth: N-lim chemostat, doubling time 12 h
[11] = wild type E. coli NCM3722, growth: P-lim chemostat, doubling time 6 h
[12] = wild type E. coli NCM3722, growth: P-lim chemostat, doubling time 12 h

Sequence	total protein half-life in vivo [1] [h]	total protein half-life in vivo [2] [h]	total protein half-life in vivo [3] [h]	total protein half-life in vivo [4] [h]	total protein half-life in vivo [5] [h]	total protein half-life in vivo [6] [h]	total protein half-life in vivo [7] [h]	total protein half-life in vivo [8] [h]	total protein half-life in vivo [9] [h]	total protein half-life in vivo [10] [h]	total protein half-life in vivo [11] [h]	total protein half-life in vivo [12] [h]
MSSKVEQLRAQLNERILVLDGGMGTMIQSYRLNEADFRGERFADWPCDLKGNNDLLVLSKPEVIAAIHNAYFEAGADIIETNTFNSTTIAMADYQMESLSAEINFAAAKLARACADEWTARTPEKPRYVAGVLGPTNRTASISPDVNDPAFRNITFDGLVAAYRESTKALVEGGADLILIETVFDTLNAKAAVFAVKTEFEALGVELPIMISGTITDASGRTLSGQTTEAFYNSLRHAEALTFGLNCALGPDELRQYVQELSRIAECYVTAHPNAGLPNAFGEYDLDADTMAKQIREWAQAGFLNIVGGCCGTTPQHIAAMSRAVEGLAPRKLPEIPVACRLSGLEPLNIGEDSLFVNVGERTNVTGSAKFKRLIKEEKYSEALDVARQQVENGAQIIDINMDEGMLDAEAAMVRFLNLIAGEPDIARVPIMIDSSKWDVIEKGLKCIQGKGIVNSISMKEGVDAFIHHAKLLRRYGAAVVVMAFDEQGQADTRARKIEICRRAYKILTEEVGFPPEDIIFDPNIFAVATGIEEHNNYAQDFIGACEDIKRELPHALISGGVSNVSFSFRGNDPVREAIHAVFLYYAIRNGMDMGIVNAGQLAIYDDLPAELRDAVEDVILNRRDDGTERLLELAEKYRGSKTDDTANAQQAEWRSWEVNKRLEYSLVKGITEFIEQDTEEARQQATRPIEVIEGPLMDGMNVVGDLFGEGKMFLPQVVKSARVMKQAVAYLEPFIEASKEQGKTNGKMVIATVKGDVHDIGKNIVGVVLQCNNYEIVDLGVMVPAEKILRTAKEVNADLIGLSGLITPSLDEMVNVAKEMERQGFTIPLLIGGATTSKAHTAVKIEQNYSGPTVYVQNASRTVGVVAALLSDTQRDDFVARTRKEYETVRIQHGRKKPRTPPVTLEAARDNDFAFDWQAYTPPVAHRLGVQEVEASIETLRNYIDWTPFFMTWSLAGKYPRILEDEVVGVEAQRLFKDANDMLDKLSAEKTLNPRGVVGLFPANRVGDDIEIYRDETRTHVINVSHHLRQQTEKTGFANYCLADFVAPKLSGKADYIGAFAVTGGLEEDALADAFEAQHDDYNKIMVKALADRLAEAFAEYLHERVRKVYWGYAPNENLSNEELIRENYQGIRPAPGYPACPEHTEKATIWELLEVEKHTGMKLTESFAMWPGASVSGWYFSHPDSKYYAVAQIQRDQVEDYARRKGMSVTEVERWLAPNLGYDAD	5.12 ± 0.36	4.3 ± 0.33	3.71 ± 0.047	3.96 ± 0.33	3.31 ± 0.087	2.73 ± 0.051	5.05 ± 0.14	8.09 ± 0.26	3.489 ± 0.028	5.48 ± 0.14	5.43 ± 0.51	9.81 ± 0.4
MNLEKINELTAQDMAGVNAAILEQLNSDVQLINQLGYYIVSGGGKRIRPMIAVLAARAVGYEGNAHVTIAALIEFIHTATLLHDDVVDESDMRRGKATANAAFGNAASVLVGDFIYTRAFQMMTSLGSLKVLEVMSEAVNVIAEGEVLQLMNVNDPDITEENYMRVIYSKTARLFEAAAQCSGILAGCTPEEEKGLQDYGRYLGTAFQLIDDLLDYNADGEQLGKNVGDDLNEGKPTLPLLHAMHHGTPEQAQMIRTAIEQGNGRHLLEPVLEAMNACGSLEWTRQRAEEEADKAIAALQVLPDTPWREALIGLAHIAVQRDR [P0AD57]	4.19 ± 0.56	4.1 ± 0.06	3.69 ± 0.19	5.2 ± 0.3	4.09 ± 0.18	3.02 ± 0.1	5.42 ± 0.15	9.86 ± 0.44	3.93 ± 0.17	6.372 ± 0.062	5.64 ± 0.61	11.4 ± 0.24
MRWLPFIAIFLYVYIEISIFIQVAHVLGVLLTLVLVIFTSVIGMSLVRNQGFKNFVLMQQKMAAGENPAAEMIKSVSLIIAGLLLLLPGFFTDFLGLLLLLPPVQKHLTVKLMPHLRFSRMPGGGFSAGTGGGNTFDGEYQRKDDERDRLDHKDDRQD	5.99 ± 0.11	6.83 ± 1.1	6.44 ± 0.84	6.06 ± 0.49	5.53 ± 0.073	2.47 ± 0.28	7.17 ± 0.34	11.7 ± 1.8	6.12 ± 1.3	14.2	5.89 ± 0.25	12.4 ± 0.96
MKFIIKLFPEITIKSQSVRLRFIKILTGNIRNVLKHYDETLAVVRHWDNIEVRAKDENQRLAIRDALTRIPGIHHILEVEDVPFTDMHDIFEKALVQYRDQLEGKTFCVRVKRRGKHDFSSIDVERYVGGGLNQHIESARVKLTNPDVTVHLEVEDDRLLLIKGRYEGIGGFPIGTQEDVLSLISGGFDSGVSSYMLMRRGCRVHYCFFNLGGAAHEIGVRQVAHYLWNRFGSSHRVRFVAINFEPVVGEILEKIDDGQMGVILKRMMVRAASKVAERYGVQALVTGEALGQVSSQTLTNLRLIDNVSDTLILRPLISYDKEHIINLARQIGTEDFARTMPEYCGVISKSPTVKAVKSKIEAEEEKFDFSILDKVVEEANNVDIREIAQQTEQEVVEVETVNGFGPNDVILDIRSIDEQEDKPLKVEGIDVVSLPFYKLSTKFGDLDQNKTWLLWCERGVMSRLQALYLREQGFNNVKVYRP	4.16 ± 1	2.72 ± 0.25	2.86 ± 0.2	3.57 ± 0.082	2.827 ± 0.0041	3 ± 0.2	4.62 ± 0.53	7.48 ± 0.32	2.952 ± 0.021	3.99 ± 0.086	5.66 ± 1.4	8.76 ± 0.25
MEQLRAELSHLLGEKLSRIECVNEKADTALWALYDSQGNPMPLMARSFSTPGKARQLAWKTTMLARSGTVRMPTIYGVMTHEEHPGPDVLLLERMRGVSVEAPARTPERWEQLKDQIVEALLAWHRQDSRGCVGAVDNTQENFWPSWYRQHVEVLWTTLNQFNNTGLTMQDKRILFRTRECLPALFEGFNDNCVLIHGNFCLRSMLKDSRSDQLLAMVGPGLMLWAPREYELFRLMDNSLAEDLLWSYLQRAPVAESFIWRRWLYVLWDEVAQLVNTGRFSRRNFDLASKSLLPWLA [P0AB03]	5.11	4.02	2.54 ± 0.47	2.51	1.57	2.16 ± 0.1	3.92 ± 0.21	6.84 ± 0.48			3.8	7.86
MSESVQSNSAVLVHFTLKLDDGTTAESTRNNGKPALFRLGDASLSEGLEQHLLGLKVGDKTTFSLEPDAAFGVPSPDLIQYFSRREFMDAGEPEIGAIMLFTAMDGSEMPGVIREINGDSITVDFNHPLAGQTVHFDIEVLEIDPALEA [P0AEM0]	4.8	4.79		5.05	3.85 ± 0.14	2.84	4.78 ± 0.094	9.21 ± 1.6	4.44	5.91	5.49 ± 0.13	11.6
MERNVTLDFVRGVAILGILLLNISAFGLPKAAYLNPAWYGAITPRDAWTWAFLDLIGQVKFLTLFALLFGAGLQMLLPRGRRWIQSRLTLLVLLGFIHGLLFWDGDILLAYGLVGLICWRLVRDAPSVKSLFNTGVMLYLVGLGVLLLLGLISDSQTSRAWTPDASAILYEKYWKLHGGVEAISNRADGVGNSLLALGAQYGWQLAGMMLIGAALMRSGWLKGQFSLRHYRRTGFVLVAIGVTINLPAIALQWQLDWAYRWCAFLLQMPRELSAPFQAIGYASLFYGFWPQLSRFKLVLAIACVGRMALTNYLLQTLICTTLFYHLGLFMHFDRLELLAFVIPVWLANILFSVIWLRYFRQGPVEWLWRQLTLRAAGPAISKTSR		5.73 ± 0.069	5.75 ± 1.1	6.13 ± 0.32	5.67 ± 0.66		6.471 ± 0.017	10.3 ± 1.2	6.72 ± 0.74	7.45 ± 4	5.19 ± 0.44	11.6 ± 0.22
MVAENQPGHIDQIKQTNAGAVYRLIDQLGPVSRIDLSRLAQLAPASITKIVREMLEAHLVQELEIKEAGNRGRPAVGLVVETEAWHYLSLRISRGEIFLALRDLSSKLVVEESQELALKDDLPLLDRIISHIDQFFIRHQKKLERLTSIAITLPGIIDTENGIVHRMPFYEDVKEMPLGEALEQHTGVPVYIQHDISAWTMAEALFGASRGARDVIQVVIDHNVGAGVITDGHLLHAGSSSLVEIGHTQVDPYGKRCYCGNHGCLETIASVDSILELAQLRLNQSMSSMLHGQPLTVDSLCQAALRGDLLAKDIITGVGAHVGRILAIMVNLFNPQKILIGSPLSKAADILFPVISDSIRQQALPAYSQHISVESTQFSNQGTMAGAALVKDAMYNGSLLIRLLQG	5.81 ± 0.28	6.92 ± 0.73		6.12 ± 0.57	6.02 ± 0.33	2.89 ± 0.014	5.92 ± 0.69	9.65 ± 0.51	5.85 ± 0.26	12.8 ± 0.51	6.19 ± 1	12.4 ± 0.56
MFEYLPELMKGLHTSLTLTVASLIVALILALIFTIILTLKTPVLVWLVRGYITLFTGTPLLVQIFLIYYGPGQFPTLQEYPALWHLLSEPWLCALIALSLNSAAYTTQLFYGAIRAIPEGQWQSCSALGMSKKDTLAILLPYAFKRSLSSYSNEVVLVFKSTSLAYTITLMEVMGYSQLLYGRTYDVMVFGAAGIIYLVVNGLLTLMMRLIERKALAFERRN [P0AE30]	5.31	6.27		5.01			5.55		5.22		6.32	11
MAHIVTLNTPSREDWLTQLADVVTDPDELLRLLNIDAEEKLLAGRSAKKLFALRVPRSFIDRMEKGNPDDPLLRQVLTSQDEFVIAPGFSTDPLEEQHSVVPGLLHKYHNRALLLVKGGCAVNCRYCFRRHFPYAENQGNKRNWQTALEYVAAHPELDEMIFSGGDPLMAKDHELDWLLTQLEAIPHIKRLRIHSRLPIVIPARITEALVECFARSTLQILLVNHINHANEVDETFRQAMAKLRRVGVTLLNQSVLLRDVNDNAQTLANLSNALFDAGVMPYYLHVLDKVQGAAHFMVSDDEARQIMRELLTLVSGYLVPKLAREIGGEPSKTPLDLQLRQQ	5.05 ± 0.77	2.63 ± 0.045	1.02 ± 0.14	1.61 ± 0.14	1.33	1.41 ± 0.071	1.57 ± 0.15	3.35 ± 1.6	1.58 ± 0.58	2.05	1.51 ± 0.33	2.71 ± 0.88
MSKQSQHVLIALPHPLLHLVSLGLVSFIFTLFSLELSQFGTQLAPLWFPTSIMMVAFYRHAGRMWPGIALSCSLGNIAASILLFSTSSLNMTWTTINIVEAVVGAVLLRKLLPWYNPLQNLADWLRLALGSAIVPPLLGGVLVVLLTPGDDPLRAFLIWVLSESIGALALVPLGLLFKPHYLLRHRNPRLLFESLLTLAITLTLSWLSMLYLPWPFTFIIVLLMWSAVRLPRMEAFLIFLTTVMMVSLMMAADPSLLATPRTYLMSHMPWLPFLLILLPANIMTMVMYAFRAERKHISESETHFRNAMEYSAIGMALVGTEGQWLQTNKALCQFLGYSQEELRGLTFQQLTWPEDLNKDLQQVEKLISGEINTYSMEKRYYNRNGDVVWALLAVSLVRHTDGTPLYFIAQIEDINELKRTEQVNQQLMERITLANEAGGIGIWEWELKPNIFSWDKRMFELYEIPPHIKPNWQVWYECVLPEDRQHAEKVIRDSLQSRSPFKLEFRITVKDGIRHIRALANRVLNKEGEVERLLGINMDMTEVKQLNEALFQEKERLHITLDSIGEAVVCIDMAMKITFMNPVAEKMSGWTQEEALGVPLLTVLHITFGDNGPLMENIYSADTSRSAIEQDVVLHCRSGGSYDVHYSITPLSTLDGSNIGSVLVIQDVTESRKMLRQLSYSASHDALTHLANRASFEKQLRILLQTVNSTHQRHALVFIDLDRFKAVNDSAGHAAGDALLRELASLMLSMLRSSDVLARLGGDEFGLLLPDCNVESARFIATRIISAVNDYHFIWEGRVHRVGASAGITLIDDNNHQAAEVMSQADIACYASKNGGRGRVTVYEPQQAAAHSERAAMSLDEQWRMIKENQLMMLAHGVASPRIPEARNLWLISLKLWSCEGEIIDEQTFRRSFSDPALSHALDRRVFHEFFQQAAKAVASKGISISLPLSVAGLSSATLVNDLLEQLENSPLPPRLLHLIIPAEAILDHAESVQKLRLAGCRIVLSQVGRDLQIFNSLKANMADYLLLDGELCANVQGNLMDEMLITIIQGHAQRLGMKTIAGPVVLPLVMDTLSGIGVDLIYGEVIADAQPLDLLVNSSYFAIN	4.93 ± 0.2							9.36			1.53	
